Experimental data taken from patent US20050208039A1.

Molecular target: 158P1D7 receptor on HUVEC cells (unidentified)
Experiment: flow cytometry on HUVEC cells; bound ECD detected with anti-158P1D7-PE (MAb M15/X68.2.22 at 1 ug/ml and anti-mouse-PE); by the order of the key, 2.88% is taken as the sample 'HUVEC No ECD' and 6.53% as 'HUVEC 158P1D7 ECD' [panel printed as Fig. 34A]

With “Recombinant extracellular domain (ECD) of 158P1D7 (amino acids 16-608) (from UniProt Q9H5Y7 16-608)” the % gated was 6.53%.
